Laboratory results taken from PMC12377726 (Proceedings of the National Academy of Sciences of the …, 2025).

B1: G001_gp1_V06_VRC01c_88 (antibody, V domains shown)
VH: QVQLVQSGAEVKKPGASVKVSCKASGYTFTGYYMHWVRQAPGQGLEWMGWINPNSGGTNYAQKFQGRVTMTRDTSISTAYMELRGLRSDDTAVYYCASLYYYVPGGWGQGTLVTVSS
VL: EIVLTQSPGTLSLSPGERATLSCRASQSVSNSYLAWYQQKPGQAPRLLIYGASSRATGIPDRFSGSGSGTDFTLTISRLEPEDFAVYYCQQYVTFGPGTKVDIK
B2: G001_gp1_V07_VRC01c_101 (antibody, V domains shown)
VH: QVQLVQSGAEVKKPGASVKVSCKASRDTFTGYYMHWVRQAPGQGLEWMGWINPNSGGTNYAQKFQDGVTLTRDTSISTAYMELSRLRSDDTAVYYCARTEYYSQRGWAFDIWGQGTMVTVSS
VL: DIQMTQSPSSLSASVGDRVTITCQASQDISNHLNWYQQKPGKAPKLLIYDASNLETGVPLRFSGSGSGTDFTFTISSLQPEDIATYYCQQYDNFGPGTKVDIK
B3: G001_gp1_V07_VRC01c_102 (antibody, V domains shown)
VH: QVQLVQSGAEVKKPGASVKVSCKASGYTFTGYYMHWVRQAPGQGLEWMGWINPISGGTNYAQEFQDWVTMTRDTSISTAYMELSRLRSDDTAVYYCARHDSSENAFDIWGQGTMVTVSS
VL: DIQMTQSPSTLSASVGDRVTITCRASQSTSRWLAWYQQKPGKAPKLLIYKASSLESGVPSRFSGSGSGTEFTLTISSLQPDDFATYYCQQYTSFGQGTKLEIK
B4: G001_gp1_V07_VRC01c_105 (antibody, V domains shown)
VH: not shown
VL: EIVMTQSPATLSVSPGERATLSCRASQSVSSNLAWYQQKPGQAPRLLIYGASTRATGIPARFSGSGSGTEFTLTISSLQSEDFAVYYCQQYNIFGQGTKLEIK
B5: G001_gp1_V07_VRC01c_107 (antibody, V domains shown)
VH: QVQLVQSGAEVKKPGASVKVSCKASGYTFTGYYMHWVRQAPGQGLEWMGWINPSSGGTNYAQKFQGRVTMTRDTSISTAYMELDWLRSDDTAVYYCARVRGATTFDYWGQGTLVTVSS
VL: DIQMTQSPSSLSASVGDRVTITCQASQDISNYLHWYQQKPGKAPKLLIYDASKLETGVPSRFSGSGSGTDFTFTISSLQPEDIATYYCQQYNTFGQGTKLQIK
B6: G001_gp1_V07_VRC01c_109 (antibody, V domains shown)
VH: QVQLVQSGAEVKKPGASVKVSCKTSGYTFTDYYIHWVRQAPGQGLEWMGWINPNSGGTNYAQKFQGGVTMTRDTSISTAYMDLNRLTSDDTAVYYCTRLPPNRAAPGWWFDPWGQGTLVTVSS
VL: EIVLTQSPGTLSLSPGERATLSCRASQSVSSSYLAWYQQKPGQAPRLLIYGASNRATGIPDRFSGSGSGTDFTLTISRLEPEDFAVYYCQQYGAFGQGTKVEIK
B7: G001_gp1_V07_VRC01c_110 (antibody, V domains shown)
VH: QVQLVQSGAEVKKPGASVRVSCKASGYTFTDYYMHWVRQAPGQGLEWMGWINPNSGGTNYAQKFQGRVTMTRDTSISTAYMELSGLRSDDTAVYYCARITGYYDSSGYYCLDHWGQGTLVTVAS
VL: EIVLTQSPGTLSLSPGERATLSCRASQSGRSSYLAWYQQKPGQAPRLLIYGASSRATGIPDRFSGSGSGTDFTLTISRLEPEDFAVYYCHQYAAFGQGTKVEIK
B8: G001_gp1_V07_VRC01c_111 (antibody, V domains shown)
VH: QVQLVQSGAEVKKPGASVKVSCKASGYTFTGYYMHWVRQAPGQGLEWMGWIYPNSGGTNYVQEFQGRVTMTRDTSISTAYMELSRLRSDDTAVYYCATDNYTTSSMLLRTWGQGTLVTVSS
VL: DIQMTQSPSTLSASVGDRVTITCRASQSISSWLAWYQQKPGKAPKLLIYKASSLESGVPSRFSGSGSGTEFTLTISSLQPDDFATYYCQQYETFGQGTKVEIK
B9: G001_gp1_V07_VRC01c_2021-0031 (antibody, V domains shown)
VH: not shown
VL: DIQMTQSPSSLSASVGDRVTITCQASQDISEYLNWYQQKPGKAPKLLIYDASNLETGVPSRFSGSGSGTDFTFTISSLQPEDVATYYCQQYEFFGGGTKVEIK
B10: G001_gp1_V07_VRC01c_2021-0032 (antibody, V domains shown)
VH: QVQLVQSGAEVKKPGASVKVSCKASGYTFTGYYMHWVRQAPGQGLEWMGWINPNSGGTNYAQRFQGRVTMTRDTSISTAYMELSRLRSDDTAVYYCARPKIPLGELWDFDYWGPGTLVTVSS
VL: EIVMTQSPATLSVSPGERATLSCRASQSVSSNLAWYQQKPGQAPRLLIYGASTRATGIPARFSGSGSGTEFTLTISSLQSEDFAVYYCQQYEFFGPGTKVDIK
B11: G001_gp1_V07_VRC01c_2021-0033 (antibody, V domains shown)
VH: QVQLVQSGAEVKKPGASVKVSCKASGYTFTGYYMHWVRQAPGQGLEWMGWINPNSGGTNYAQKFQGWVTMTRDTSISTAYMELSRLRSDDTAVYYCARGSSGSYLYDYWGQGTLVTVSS
VL: DIQMTQSPSTLSASVGDRVTITCRASQSISSWLAWYQQKPGKAPKLLIYKASSLESGVPSRFSGSGSGTEFTLTISSLQPDDFATYYCQQYETFGQGTKVEIK
B12: G001_gp1_V07_VRC01c_2021-0034 (antibody, V domains shown)
VH: QVQLVQSGAEVKKPGASVKVSCKASGYTFSGYYMHWVRQAPGQGLEWMGWINPNSGGTNYAQKFQGGVTMTRDTSISTAYMELSSLRSDDTAVYYCAREGGLGATAFDYWGQGTLVSVSS
VL: DIQMTQSPSTLSASVGDRVTITCRASQSISSWLAWYQQKPGKAPKLLIYKASSLESGVPSRFSGSGSGTEFTLTISSLQPDDFATYYCQQYETFGQGTKLEIK
B13: G001_gp1_V07_VRC01c_2021-0035 (antibody, V domains shown)
VH: QVQLVQSGAEVKKPGASVKVSCKASGYTFTDYYLHWVRQAPGQGLEWMGWINPNSGGTNYAQKFQDWVTMTRDTSISTAYMELSRLRSDDTAVYYCARDGLAARWDFDSWGQGTLVTVSS
VL: SYELTQPPSVSVAPGQTARITCGGNNIGSKSVHWYQQKPVQAPVLVVYDDGDRPSGIPERFSGSNSGNTATLTISRVEAGDEADYYCQVLEVFGTGTKVTVL
B14: G001_gp1_V07_VRC01c_2021-0036 (antibody, V domains shown)
VH: QVQLVQSGAEVKKPGASVKVSCKASGYTFTGYYMHWVRQAPGQGLEWMGWINPNSGGTNYAQKFQDWVTMTRDTSISTAYMEVSRLKSDDTAVYYCARGRAGTTAWWYFDLWGRGALVTVSS
VL: DIQMTQSPSSLSASVGDRVTITCQASQDISNYLNWYQQKPGKAPKLLIYDASNLETGVPSRFSGSGSGTDFTFTISSLQPEDVATYYCQQYDSFGPGTKVDIK
B15: G001_gp1_V07_VRC01c_2021-0037 (antibody, V domains shown)
VH: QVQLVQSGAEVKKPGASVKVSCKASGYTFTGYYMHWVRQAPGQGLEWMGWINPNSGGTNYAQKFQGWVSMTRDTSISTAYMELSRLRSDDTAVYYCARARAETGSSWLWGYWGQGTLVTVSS
VL: DIQMTQSPSSLSASVGDRVTITCQASQDISNYLNWYQQKPGKAPKLLIYDASNLETGVPSRFSGSGSGTDFTFTISSLQPEDIATYYCQEYDTFGGGTKVEIK
B16: G001_gp1_V07_VRC01c_2021-0038 (antibody, V domains shown)
VH: not shown
VL: DIQMTQSPSSLSASVGDRVTITCQASQGISNYLNWYQLKPGKAPKLLISDASNLETGVPSRFSGSGSGTDFTFTISSLQPEDIATYYCQQYDYFGPGTTVDIK
B17: G001_gp1_V07_VRC01c_2021-0039 (antibody, V domains shown)
VH: QVQLVQSGAEVKKPGASVRVSCKASGNTFTDYYMHWVRQAPGQGLEWMGWINPNSGGTNYAQKFQGRVTMTRDTSISTAYMELSRLRSDDTAVYYCASPGAAGQPWGFGYWGQGTLVTVSS
VL: DIQMTQSPSSLSASVGDRVTITCQASQDISNYLNWYQQKPGKAPKLLIYDASHLETGVPSRFSGSESGTECTLTISSLQPEDIATYYCQQYEFFGGGTKVEIK
B18: G001_gp1_V07_VRC01c_2021-0040 (antibody, V domains shown)
VH: QVQLVQSGAEVKKPGASVKVSCKASGYTFTGYYMHWVRQAPGQGLEWMGWINPNSGGSNYAQKFQGRVTMTRDRSITTAYMELSRLRSDDTAVYYCARDHTGTAGWYFDLWGRGTLVTVSS
VL: EIVLTQSPGTLSLSPGERATLSCRASQSVSSSYLAWYHQKPGQAPRLLIYGASSRATGIPDRFSGSGSGTDFTLTISRLEPEDFAVYYCQQYETFGQGTKVEIT
B19: G001_gp1_V07_VRC01c_2021-0044 (antibody, V domains shown)
VH: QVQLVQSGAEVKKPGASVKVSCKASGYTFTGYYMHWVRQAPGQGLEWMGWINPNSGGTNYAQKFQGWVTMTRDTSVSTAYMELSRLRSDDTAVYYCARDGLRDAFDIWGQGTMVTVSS
VL: QSALTQPASVSGPPGQSITISCTGTSSDFGGHNSVSWYQQHPGKAPKLMIYDVSNRPSGVSNRFSGSKSGNTASLTISGLQAEDEADYYCSSYKVFGGGTKLTVL
B20: G001_gp1_V07_VRC01c_2021-0048 (antibody, V domains shown)
VH: RVQLVQSGAEVKKPGASVKVSCKASGYTFTGYYMHWVRQAPGQGLEWMGWINPNSGGTNYAQKFQGRVTMTRATSISTAYMELSRLRFDDTAVYYCARGGSRGWSLDYWGQGTLVTVSS
VL: DIQMTQSPSSLSASVGDRVTITCQASQDISNYLNWYQQKLGKAPKLLIYDASNLETGVPSRFSGSGSGTDFSLTISSLQPEDIATYYCQQYETFGQGTKLEIK
B21: G001_gp1_V07_VRC01c_90 (antibody, V domains shown)
VH: QVQLVQSGAEVKKPGASVKVSCKASGYTFTDYYMHWVRQAPGQGLEWMGWINPNSGGTNYAQKFQGRVTMTRDTSISTAYVVLTRLRSDDTAVYYCATVEWGGSGWNYDYWGQGTLVTVSS
VL: EIVMTQSPATLSVSPGERATLSCRASQSVSSNLAWYQQKPGQAPRLLIYGASTRATGIPARFSGSGSGTEFTLTISSLQSEDFAVYYCQQYETFGQGTKVEIK
B22: G001_gp1_V07_VRC01c_91 (antibody, V domains shown)
VH: QVQLVQSGAEVKKPGASVKVSCKASGYTFTDYYIHWVRQAPGQGLEWMGWISPNSGGTNFAQKFQGSVTMTRDTSISTAYMELSRLRSDDTAVYFCARDGGWKRGWGFQFWGQGTLVTVSS
VL: QSALTQPPSASGSPGQSVTISCTGTSSDVGDYKYVSWYQQHPGKAPKLVIYEVSKRPSGVPDRFSGSKSGNTASLTVSGLQAEDEADYYCSSYEVFGGGTKLTVL
B23: G001_gp1_V07_VRC01c_92 (antibody, V domains shown)
VH: QVQLVQSGAEVRKPGASVKVSCKASGYTFTDSYMHWVRQAPGQGLEWMGWINPNSGGTNYAQKFQGRVTMTRDTSITTAYMELSRLRFDDTAIYYCATVATIAAPWAFDYWGQGALVTVSS
VL: DIQMTQSPSSLSASVGDRVSITCQASQDINNYLNWYQQKPGKAPKLLIYDVSNLQTGVPSRFSGRGSGTDFTFTISSLQPEDSATYYCQQYERFGQGTKLEIK
B24: G001_gp1_V07_VRC01c_94 (antibody, V domains shown)
VH: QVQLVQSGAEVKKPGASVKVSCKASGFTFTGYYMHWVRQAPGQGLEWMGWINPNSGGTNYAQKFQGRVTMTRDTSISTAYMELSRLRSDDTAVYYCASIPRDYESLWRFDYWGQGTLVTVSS
VL: EIVMTQSPATLSVSPGERATLSCRASQSVSSNLAWYQQKPGQAPRLLIYGASTRATGIPARFSGSGSGTEFTLTISSLQSEDFAVYYCQQYNTFGQGTRLEIK
B25: G001_gp1_V07_VRC01c_97 (antibody, V domains shown)
VH: QVQLVQSGAEVKKPGASVKVSCKASGYSFTDYYMHWVRQAPGQGLEWMGWINPNSGGTNYAQKFQGRVTMTRDTSISTAYMELSRLRSDDTAVYYCASDVEMANRGGWKFDYWGQGTLVTVSS
VL: QSALTQPASVSGSPGQSITISCTGTSSDVGSYNLVSWYQQHPGTAPKLMIYEVSKRPSGVSNRFSGSKSGNTASLTISGLQAEDEADYYCCSYEVFGGGTKLTVL

Each binder was assayed against eOD-GT8 (engineered outer domain germline-targeting version 8), monomer (HIV-1 gp120 engineered outer domain, …).

**Q.** Does B1 bind?
**A.** binds

**Q.** Does B2 bind?
**A.** binds

**Q.** Does B3 bind?
**A.** binds

**Q.** Does B4 bind?
**A.** binds

**Q.** Does B5 bind?
**A.** binds

**Q.** Does B6 bind?
**A.** binds

**Q.** Does B7 bind?
**A.** binds

**Q.** Does B8 bind?
**A.** binds

**Q.** Does B9 bind?
**A.** binds

**Q.** Does B10 bind?
**A.** binds

**Q.** Does B11 bind?
**A.** binds

**Q.** Does B12 bind?
**A.** binds

**Q.** Does B13 bind?
**A.** binds

**Q.** Does B14 bind?
**A.** binds

**Q.** Does B15 bind?
**A.** binds

**Q.** Does B16 bind?
**A.** binds

**Q.** Does B17 bind?
**A.** binds

**Q.** Does B18 bind?
**A.** binds

**Q.** Does B19 bind?
**A.** binds

**Q.** Does B20 bind?
**A.** binds

**Q.** Does B21 bind?
**A.** binds

**Q.** Does B22 bind?
**A.** binds

**Q.** Does B23 bind?
**A.** binds

**Q.** Does B24 bind?
**A.** binds

**Q.** Does B25 bind?
**A.** binds
